Experiment [1] addresses Human MPZ (human) (UniProt P25189). Briefly: phage display, NGS count.
Experiment [2] shares this target. Briefly: phage display R3, NGS count.
Experiment [3] deals with T1, Human Myelin Basic Protein (Homo sapiens, UniProt P02686). Briefly: phage display, NGS count.
Experiment [4] addresses T1, Human Myelin Basic Protein. Briefly: phage display R3, NGS count.
A further experiment has as its target Human Nidogen-2 (human) (UniProt Q14112). Briefly: phage display, NGS count.
Experiment [5] deals with Human Myelin PLP. Put plainly: Phage display library screening (Example 1, Power BI analysis), binding to Human Myelin PLP. To be noted: R3 Myelin PLP, NextGen sequencing count of phage sequences distinct for this target. From the text: Phage display library screens were used to identify peptides that bind to target proteins that are expressed in human nerves and could therefore be useful for systemic in-vivo labeling of nerves during fluorescence assisted surgery. Specifically, m13 phage libraries expressing 7 or 12 random amino acid peptides, or a cyclic peptide CX7C, on the N-terminus of the minor coat protein pIII (New England Biolabs) were processed through multiple rounds of selection for binding to target proteins expressed in peripheral nerve (Table 1).
The library was processed through up to 4 binding and wash cycles. For selection, phage libraries were incubated for up to 24 hours at 4° C. in 96 well plates that had been coated with one of the target proteins. Plates were then washed with PBS and phage were eluted using 0.2M glycine pH 2.0. Phage supernatants where then neutralized with Tris pH 9.0 prior to plating on TG1 bacteria and LB agar plates. Colonies were counted to determine titer followed by DNA preparation of pools of phage and NextGen sequencing. After rounds of selection, phage were pooled and amplified for iterative selection. Phage that were bound at each round were sequenced. NextGen sequencing of pools after 2, 3 and 4 rounds of selection was used to isolate candidate sequences that were analyzed further to identify those that specifically bound each unique target protein.
DNA sequences were trimmed of all vector amino acids and imported as a peptide dataset into Power BI. Power BI was used to identify phage display sequences for specific columns (corresponding to each target protein) in order to identify sequences that were distinct for each protein target. The Power BI code evaluated each individual sequence for each protein target against the sequences present in other protein targets in a test for uniqueness. Using the distinct flag, the Power BI code generated a filtered peptide dataset that excluded any peptide sequence that occur in more than one column which identified a specific protein target. This method therefore identified candidate peptide sequences showing selective binding to an individual target protein. Unique sequences in each column were sorted by individual counts such that the most selected sequences appeared at the top of the column.

Experiment [6] concerns Human Myelin PLP. Put plainly: Phage display library screening (Example 2, Python script analysis), binding to Human Myelin PLP. As to conditions: combined unique sequence count, Python/R script analysis. The method in brief:
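Target protein-coated wells were panned with M13 phage libraries displaying 7- or 12-mer random or cyclic CX7C peptides on pIII, over up to 4 rounds (up to 24 h, 4° C), with glycine pH 2.0 elution. Pools from rounds 2–4 were NextGen-sequenced. Peptides specific to each target were ranked by unique sequence count.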

Experiment [7] has as its target T1, Human Myelin Basic Protein. Put plainly: phage display R3, NGS count. This is another data set of the same source.

Chain of Human MPZ (human) (P25189 30-153 limits assumed): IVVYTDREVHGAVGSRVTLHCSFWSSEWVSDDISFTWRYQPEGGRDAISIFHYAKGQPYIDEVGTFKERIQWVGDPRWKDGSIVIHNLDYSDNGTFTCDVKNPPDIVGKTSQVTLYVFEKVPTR
Chain of Human Nidogen-2 (human) (Q14112 31-1375 limits assumed): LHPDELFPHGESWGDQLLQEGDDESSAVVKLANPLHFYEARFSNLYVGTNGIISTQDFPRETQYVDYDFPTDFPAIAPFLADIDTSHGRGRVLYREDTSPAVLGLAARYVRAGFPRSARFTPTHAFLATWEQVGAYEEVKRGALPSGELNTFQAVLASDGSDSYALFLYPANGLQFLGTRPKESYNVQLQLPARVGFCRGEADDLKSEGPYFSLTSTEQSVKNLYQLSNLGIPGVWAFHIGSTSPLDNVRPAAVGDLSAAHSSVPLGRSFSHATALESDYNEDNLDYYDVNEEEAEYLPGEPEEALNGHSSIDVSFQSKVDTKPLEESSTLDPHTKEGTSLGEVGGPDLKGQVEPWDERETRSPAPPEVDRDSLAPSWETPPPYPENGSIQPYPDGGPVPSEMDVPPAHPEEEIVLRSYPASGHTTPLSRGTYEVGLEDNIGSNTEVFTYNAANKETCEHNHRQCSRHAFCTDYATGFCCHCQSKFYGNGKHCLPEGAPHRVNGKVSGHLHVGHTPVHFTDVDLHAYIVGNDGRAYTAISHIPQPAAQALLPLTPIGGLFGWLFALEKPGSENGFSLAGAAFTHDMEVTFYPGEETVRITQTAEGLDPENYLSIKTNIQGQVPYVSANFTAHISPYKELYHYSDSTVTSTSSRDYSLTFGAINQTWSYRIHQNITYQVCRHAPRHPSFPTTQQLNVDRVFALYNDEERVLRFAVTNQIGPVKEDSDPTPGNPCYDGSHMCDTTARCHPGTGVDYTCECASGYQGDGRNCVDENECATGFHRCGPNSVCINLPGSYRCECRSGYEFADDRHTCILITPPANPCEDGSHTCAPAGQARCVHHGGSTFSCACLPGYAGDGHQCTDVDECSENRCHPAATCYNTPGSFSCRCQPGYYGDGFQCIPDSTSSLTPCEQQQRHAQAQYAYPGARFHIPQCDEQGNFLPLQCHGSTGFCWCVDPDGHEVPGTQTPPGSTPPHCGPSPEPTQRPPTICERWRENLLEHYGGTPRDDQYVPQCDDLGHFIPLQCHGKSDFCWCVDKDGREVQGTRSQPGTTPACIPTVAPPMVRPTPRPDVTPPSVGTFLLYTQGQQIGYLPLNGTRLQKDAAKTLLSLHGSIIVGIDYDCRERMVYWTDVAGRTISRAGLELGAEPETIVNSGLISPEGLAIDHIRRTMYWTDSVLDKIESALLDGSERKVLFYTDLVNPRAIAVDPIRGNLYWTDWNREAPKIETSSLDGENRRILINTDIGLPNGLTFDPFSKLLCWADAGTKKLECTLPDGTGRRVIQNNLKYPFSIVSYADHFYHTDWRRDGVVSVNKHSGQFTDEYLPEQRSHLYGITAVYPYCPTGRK
T1 sequence (P02686 135-304 limits assumed): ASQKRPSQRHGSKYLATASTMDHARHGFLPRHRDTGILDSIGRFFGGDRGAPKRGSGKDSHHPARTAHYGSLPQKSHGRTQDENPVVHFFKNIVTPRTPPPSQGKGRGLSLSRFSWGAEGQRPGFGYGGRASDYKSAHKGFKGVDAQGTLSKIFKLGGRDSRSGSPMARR

In the case of WPSISRP (peptide), the results for the Count with Human MPZ (human) [1] and with Human MPZ (human) [2] were 58 and 57, respectively.

Turning to RVPHSRT (peptide), the Count with Human MPZ (human) [2] was 49.

Regarding LSSPLSL (peptide), the Count in the experiment with Human MPZ (human) [1] and in the experiment with Human MPZ (human) [2] was 56 each time.

Turning to DPWVMLR (peptide), the Count in experiment [3] and in experiment [4] was 11 throughout.

In experiment [4], HPSTWHK (peptide) yielded a Count of 18.

KMAGHTV (peptide): the Count with Human MPZ (human) [1] came out at 54; with Human MPZ (human) [2] it was 51.

In the experiment with Human Nidogen-2 (human), QLLESRT (peptide) showed a Count of 6.

GLTPKLF (peptide): the Count in the experiment with Human MPZ (human) [2] was found to be 48.

Turning to TPWLPTI (peptide), the Count in the experiment with Human Nidogen-2 (human) was 7.

Consider TMASPAK (peptide), for which the Count in the experiment with Human MPZ (human) [1] is 58; with Human MPZ (human) [2], 52.

In turn, TIASLLV (peptide) yielded a Count with Human Nidogen-2 (human) of 6.

In the case of NPNWRTI (R3 Myelin PLP-binding peptide), the Count in the experiment on Human Myelin PLP [5] and in the experiment on Human Myelin PLP [6] was 34 in each case.

Regarding VLKNNPT (peptide), the Count with Human MPZ (human) [1] is 87; in the experiment with Human MPZ (human) [2], 86.

EAMMHRN (peptide) displayed a Count in the experiment with Human Nidogen-2 (human) of 6.

For DTSRTME (R3 Myelin PLP-binding peptide), the Count with Human Myelin PLP [5] and in the experiment on Human Myelin PLP [6] was 33 throughout.

For the molecule HRLPWHH (peptide), the Count in experiment [3] and in experiment [4] was 10 throughout.

Consider SHSPGNK (peptide), for which the values for the Count with Human MPZ (human) [1] and with Human MPZ (human) [2] were 79 and 67, respectively.

With HQGSRTY (R3 Myelin PLP-binding peptide), the Count with Human Myelin PLP [5] and in the experiment with Human Myelin PLP [6] was 53 throughout.

Consider AWSTSSV (peptide), for which the Count in experiment [3] and in experiment [4] was 12 each time.

In turn, QTLRPKQ (peptide) came in with a Count with Human Nidogen-2 (human) of 6.

In the experiment with Human Nidogen-2 (human), ATYNMSQ (peptide) displayed a Count of 7.

In turn, NILSQVN (peptide) had a Count in the experiment with Human Nidogen-2 (human) of 6.

In the case of DGKNTSN (peptide), the Count in experiment [4] amounted to 10.

In the experiment with Human Nidogen-2 (human), YNHTMMY (peptide) displayed a Count of 7.

In the case of TSPWELR (peptide), the results for the Count with Human MPZ (human) [1] and in the experiment with Human MPZ (human) [2] were 108 and 107, respectively.

ARMAFSL (peptide) registered a Count with Human Nidogen-2 (human) of 7.

The molecule ALYLPGR (peptide) returned a Count with Human Nidogen-2 (human) of 7.

Consider VLTKPMP (peptide), for which the Count in the experiment with Human MPZ (human) [1] and with Human MPZ (human) [2] was 56 in each case.

TNPWKPH (R3 Myelin PLP-binding peptide): the Count with Human Myelin PLP [5] and in the experiment with Human Myelin PLP [6] was 62 each time.

As to YTPMGTG (R3 Myelin PLP-binding peptide), the Count with Human Myelin PLP [5] and in the experiment with Human Myelin PLP [6] was 50 throughout.

In the case of SHLASRP (peptide), the Count in the experiment with Human MPZ (human) [2] was 97.

In the case of NPSHHPR (R3 Myelin PLP-binding peptide), the Count with Human Myelin PLP [5] and with Human Myelin PLP [6] was 37 in each case.

With LTHHFAP (R3 Myelin PLP-binding peptide), the Count in the experiment with Human Myelin PLP [5] and in the experiment on Human Myelin PLP [6] was 40 each time.

LVHPFHG (peptide) displayed a Count with Human Nidogen-2 (human) of 8.

Take EKPSWTR (R3 Myelin PLP-binding peptide): the Count in the experiment with Human Myelin PLP [5] and in the experiment on Human Myelin PLP [6] was 33 in each case.

For the molecule WTMKPNY (peptide), the Count in experiment [3] came to 14; in experiment [4] it was 13.

In the experiment with Human Nidogen-2 (human), HSRLPTP (peptide) displayed a Count of 13.

In the case of GPLRMAT (peptide), the results for the Count in the experiment with Human MPZ (human) [1] and with Human MPZ (human) [2] were 51 and 50, respectively.

As for DPITRLK (peptide), the Count came to 93 in the experiment with Human MPZ (human) [1] and 92 with Human MPZ (human) [2].

Regarding SMWSQFR (R3 Myelin PLP-binding peptide), the Count in the experiment with Human Myelin PLP [5] and in the experiment with Human Myelin PLP [6] was 34 each time.

In experiment [4], QIGVLPS (peptide) showed a Count of 11.

For the molecule QNTGLKW (peptide), the Count in experiment [3] and in experiment [4] was 11 throughout.

Take GLIRHYT (R3 Myelin PLP-binding peptide): the Count in the experiment with Human Myelin PLP [5] and in the experiment on Human Myelin PLP [6] was 66 in each case.

For the molecule RHNVEFS (R3 Myelin PLP-binding peptide), the Count in the experiment with Human Myelin PLP [5] and in the experiment with Human Myelin PLP [6] was 42 throughout.

Turning to QMDAKHM (peptide), the Count with Human Nidogen-2 (human) is 6.

In the experiment with Human Nidogen-2 (human), WLAAGSQ (peptide) came in with a Count of 6.

Turning to TESLFPH (peptide), the Count was 52 with Human MPZ (human) [1] and 50 in the experiment with Human MPZ (human) [2].

Regarding YPKLWTY (R3 Myelin PLP-binding peptide), the Count in the experiment with Human Myelin PLP [5] and in the experiment on Human Myelin PLP [6] was 35 throughout.

Molecule MQTQGRV (peptide) yielded a Count in experiment [4] of 12.

Take ATLKPYR (R3 Myelin PLP-binding peptide): the Count in the experiment with Human Myelin PLP [5] and with Human Myelin PLP [6] was 68 each time.

With SAHAKHH (peptide), the Count turned out to be 52 with Human MPZ (human) [1] and 51 in the experiment with Human MPZ (human) [2].

With LRPISHE (peptide), in experiment [4], the Count worked out at 12.

For the molecule ALPLSAS (peptide), the Count with Human MPZ (human) [1] stood at 197; in the experiment with Human MPZ (human) [2], 196.

In the case of LHITPEV (peptide), the Count with Human Nidogen-2 (human) turned out to be 6.

In the experiment with Human Nidogen-2 (human), LSIRGLT (peptide) yielded a Count of 6.

Regarding AGFPPNT (peptide), in experiment [4], the Count was 10.

Consider ETTRNYG (peptide), for which the Count in the experiment with Human MPZ (human) [1] amounted to 69; with Human MPZ (human) [2] it was 68.

As for SPDRTSL (peptide), the Count in experiment [3] and in experiment [4] was 12 in each case.

NDTKTPS (peptide): the Count in experiment [4] was found to be 19.

Regarding GLRTMEP (peptide), the Count with Human Nidogen-2 (human) turned out to be 7.

On to IKPPYTH (peptide), for which the Count with Human MPZ (human) [1] came out at 82; in the experiment with Human MPZ (human) [2] it was 78.

Turning to DRNSVFW (peptide), the Count in the experiment with Human MPZ (human) [1] and with Human MPZ (human) [2] was 50 in each case.

For the molecule SKSDAWR, in experiment [7], the Count is 14.

SVLRMLN returned a Count in experiment [7] of 16.

AITSRNA showed a Count in experiment [7] of 15.

ILLPSLN registered a Count in experiment [7] of 13.

(Values after patent US20240207421A1, “NERVE TARGETING PEPTIDES AND METHODS OF USE” (ALUME BIOSCIENCES, INC., priority 2020, published 2024).)
